Biological target: T1, KmtR (UniProt O53838 1-130)
T1 sequence: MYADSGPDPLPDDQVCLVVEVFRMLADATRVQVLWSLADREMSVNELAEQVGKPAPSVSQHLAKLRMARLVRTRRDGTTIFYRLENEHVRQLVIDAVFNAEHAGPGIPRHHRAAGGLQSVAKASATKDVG
Assay: fluorescence anisotropy

B1: PRv0286 32-mer (Rv0826 promoter) (dsDNA)
DNA 1: TCCATAGTGACAACGTGCGTAGTCAGAATTCG
DNA 2: CGAATTCTGACTACGCACGTTGTCACTATGGA
- binding result: no binding
